T1: CCR5 Q188A, HA-tagged (human, UniProt P51681 1-352)
T1 sequence: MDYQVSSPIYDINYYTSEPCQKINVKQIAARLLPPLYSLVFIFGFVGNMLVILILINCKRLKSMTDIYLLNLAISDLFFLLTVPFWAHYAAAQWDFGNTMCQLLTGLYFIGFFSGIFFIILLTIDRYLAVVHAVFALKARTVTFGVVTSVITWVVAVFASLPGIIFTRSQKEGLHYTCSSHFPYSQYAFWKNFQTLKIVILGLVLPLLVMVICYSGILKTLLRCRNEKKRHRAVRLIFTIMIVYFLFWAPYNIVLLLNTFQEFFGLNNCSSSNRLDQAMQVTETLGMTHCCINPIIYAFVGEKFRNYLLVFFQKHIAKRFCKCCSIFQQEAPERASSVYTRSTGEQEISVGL

T2: CCR5 D2A, HA-tagged (human, UniProt P51681 1-352)
T2 sequence (looked up): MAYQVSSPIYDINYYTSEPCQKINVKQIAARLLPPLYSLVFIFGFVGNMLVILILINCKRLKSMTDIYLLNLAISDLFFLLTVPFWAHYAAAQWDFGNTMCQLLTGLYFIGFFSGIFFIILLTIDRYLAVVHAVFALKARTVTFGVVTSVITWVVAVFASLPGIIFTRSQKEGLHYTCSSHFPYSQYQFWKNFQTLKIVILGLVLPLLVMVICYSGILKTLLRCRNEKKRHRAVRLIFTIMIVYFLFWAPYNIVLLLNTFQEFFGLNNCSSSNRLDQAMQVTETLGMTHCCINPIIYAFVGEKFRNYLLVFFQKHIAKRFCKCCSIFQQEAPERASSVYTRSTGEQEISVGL

T3: CCR5 K191A/N192A, HA-tagged (human, UniProt P51681 1-352)
T3 sequence: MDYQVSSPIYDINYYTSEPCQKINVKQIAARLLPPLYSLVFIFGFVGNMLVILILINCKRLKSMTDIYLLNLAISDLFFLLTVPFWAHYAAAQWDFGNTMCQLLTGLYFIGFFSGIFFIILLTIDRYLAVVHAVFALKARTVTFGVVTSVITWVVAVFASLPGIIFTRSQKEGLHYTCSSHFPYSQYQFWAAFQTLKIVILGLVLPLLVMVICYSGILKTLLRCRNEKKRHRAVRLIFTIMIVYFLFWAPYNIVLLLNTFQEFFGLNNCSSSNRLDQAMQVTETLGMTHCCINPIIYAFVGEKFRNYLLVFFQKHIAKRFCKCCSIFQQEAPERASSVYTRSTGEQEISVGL

T4: CCR5 Q102A, HA-tagged (human, UniProt P51681 1-352)
T4 sequence: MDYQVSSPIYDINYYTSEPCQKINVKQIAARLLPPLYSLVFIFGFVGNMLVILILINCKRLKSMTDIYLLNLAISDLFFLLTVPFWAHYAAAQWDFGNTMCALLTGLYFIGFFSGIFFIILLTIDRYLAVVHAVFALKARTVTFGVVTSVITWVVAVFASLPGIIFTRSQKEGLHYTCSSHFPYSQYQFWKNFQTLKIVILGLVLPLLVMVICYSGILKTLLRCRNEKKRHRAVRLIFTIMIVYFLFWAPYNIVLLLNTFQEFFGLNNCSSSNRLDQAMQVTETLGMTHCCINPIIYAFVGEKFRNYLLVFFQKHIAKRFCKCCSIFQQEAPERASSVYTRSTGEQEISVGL

T5: CCR5 K26A, HA-tagged (human, UniProt P51681 1-352)
T5 sequence: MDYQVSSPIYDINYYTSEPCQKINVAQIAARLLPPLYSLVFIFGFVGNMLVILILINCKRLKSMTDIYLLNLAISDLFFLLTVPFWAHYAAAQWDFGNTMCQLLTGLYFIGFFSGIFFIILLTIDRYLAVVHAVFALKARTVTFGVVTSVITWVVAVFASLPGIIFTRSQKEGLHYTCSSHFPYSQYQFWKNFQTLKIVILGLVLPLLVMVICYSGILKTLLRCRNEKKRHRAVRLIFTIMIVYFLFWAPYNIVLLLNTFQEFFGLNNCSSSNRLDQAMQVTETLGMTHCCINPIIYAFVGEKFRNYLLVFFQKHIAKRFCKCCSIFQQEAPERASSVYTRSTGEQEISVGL

T6: CCR5 D95A, HA-tagged (human, UniProt P51681 1-352)
T6 sequence: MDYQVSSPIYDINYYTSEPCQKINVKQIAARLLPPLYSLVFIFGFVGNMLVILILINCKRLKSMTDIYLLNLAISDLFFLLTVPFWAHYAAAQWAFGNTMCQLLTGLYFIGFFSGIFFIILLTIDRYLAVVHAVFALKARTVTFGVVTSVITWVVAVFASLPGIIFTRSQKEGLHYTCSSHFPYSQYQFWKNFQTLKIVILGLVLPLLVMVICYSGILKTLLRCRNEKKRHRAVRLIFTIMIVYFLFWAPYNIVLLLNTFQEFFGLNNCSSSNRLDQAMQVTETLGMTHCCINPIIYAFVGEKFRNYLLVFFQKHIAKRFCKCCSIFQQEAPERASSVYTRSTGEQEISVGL

T7: CCR5 D11A, HA-tagged (human, UniProt P51681 1-352)
T7 sequence (looked up): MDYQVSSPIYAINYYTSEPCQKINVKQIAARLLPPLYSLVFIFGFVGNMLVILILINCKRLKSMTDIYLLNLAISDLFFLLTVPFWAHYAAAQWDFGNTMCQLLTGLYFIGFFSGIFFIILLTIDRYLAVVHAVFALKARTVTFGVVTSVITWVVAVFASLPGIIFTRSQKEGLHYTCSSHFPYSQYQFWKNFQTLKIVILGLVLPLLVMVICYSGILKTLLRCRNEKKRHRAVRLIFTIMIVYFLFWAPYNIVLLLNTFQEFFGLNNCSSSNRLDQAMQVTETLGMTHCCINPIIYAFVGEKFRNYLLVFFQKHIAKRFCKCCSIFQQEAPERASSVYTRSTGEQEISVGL


Assays:
Test in all cases: cell-based or functional assay
[1] = biological target: T1, CCR5 Q188A, HA-tagged
[2] = biological target: T2, CCR5 D2A, HA-tagged
[3] = biological target: T3, CCR5 K191A/N192A, HA-tagged
[4] = biological target: T4, CCR5 Q102A, HA-tagged
[5] = biological target: T5, CCR5 K26A, HA-tagged
[6] = biological target: T6, CCR5 D95A, HA-tagged
[7] = biological target: wild-type CCR5, HA-tagged at the C-terminus (human, UniProt P51681 1-352)
[8] = biological target: T7, CCR5 D11A, HA-tagged

Binder | relative % inhibition of NLluc/JR-FL entry into U87MG-CD4 cells by 2 µg/ml chemokine (wild-type = 100) [1] | relative % inhibition of NLluc/JR-FL entry into U87MG-CD4 cells by 2 µg/ml chemokine (wild-type = 100) [2] | relative % inhibition of NLluc/JR-FL entry into U87MG-CD4 cells by 2 µg/ml chemokine (wild-type = 100) [3] | relative % inhibition of NLluc/JR-FL entry into U87MG-CD4 cells by 2 µg/ml chemokine (wild-type = 100) [4] | relative % inhibition of NLluc/JR-FL entry into U87MG-CD4 cells by 2 µg/ml chemokine (wild-type = 100) [5] | relative % inhibition of NLluc/JR-FL entry into U87MG-CD4 cells by 2 µg/ml chemokine (wild-type = 100) [6] | relative % inhibition of NLluc/JR-FL entry into U87MG-CD4 cells by 2 µg/ml chemokine (wild-type = 100) [7] | relative % inhibition of NLluc/JR-FL entry into U87MG-CD4 cells by 2 µg/ml chemokine (wild-type = 100) [8]
RANTES, recombinant human (ligand) SPYSSDTTPCCFAYIARPLPRAHIKEYFYTSGKCSNPAVVFVTRKNRQVCANPEKKWVREYINSLEMS | 51% | 85% | 18% | 93% | 100% | 121% | 100% | 7%
macrophage inflammatory protein (MIP)-1β, recombinant human (ligand, UniProt P13236 24-92, looked up) APMGSDPPTACCFSYTARKLPRNFVVDYYETSSLCSQPAVVFQTKRSKQVCADPSESWVQEYVYDLELN | 75% | 97% | 15% | 98% | 97% | 112% | 100% | 41%

From patent US20040086528A1 (PROGENICS PHARMACEUTICALS, published 2004)
